Reference: publication PMC10082787, “The IgG4 hinge with CD28 transmembrane domain improves VHH-based CAR T cells targeting a membrane-distal epitope of GPC1 in pancreatic cancer” (Nature Communications, 2023)

B3: recombinant human GPC1-hFc protein (Fc fusion)
chain: DPASKSRSCGEVRQIYGAKGFSLSDVPQAEISGEHLRICPQGYTCCTSEMEENLANRSHAELETALRDSSRVLQAMLATQLRSFDDHFQHLLNDSERTLQATFPGAFGELYTQNARAFRDLYSELRLYYRGANLHLEETLAEFWARLLERLFKQLHPQLLLPDDYLDCLGKQAEALRPFGEAPRELRLRATRAFVAARSFVQGLGVASDVVRKVAQVPLGPECSRAVMKLVYCAHCLGVPGARPCPDYCRNVLKGCLANQADLDAEWRNLLDSMVLITDKFWGTSGVESVIGSVHTWLAEAINALQDNRDTLTAKVIQGCGNPKVNPQGPGPEEKRRRGKLAPRERPPSGTLEKLVSEAKAQLRDVQDFWISLPGTLCSEKMALSTASDDRCWNGMARGRYLPEVMGDGLANQINNPEVEVDITKPDMTIRQQIMQLKIMTNRLRSAYNGNDVDFQDASDDGSGSGSGDGCLDDLCSRKVSRKSSSSRTPLTHALPGLSEQEGQKTS
notes: glypican-1, human, fused to human Fc

Experiments:
[1] = molecular target: B3; assay: BLI; Octet RED96; His-tagged D4 loaded on Ni-NTA biosensor, serially diluted human GPC1-hFc in solution; settings: both partners purified
GPC1 peptide 14 = molecular target: T1, GPC1 peptide 14 (Homo sapiens, UniProt P35052); assay: ELISA; 53 overlapping 18-mer GPC1 peptides coated at 5 μg/ml in PBS overnight; 1 μg/ml of HM2 or D4 added; settings: both partners purified
T1 construct: peptide no; 14 of 53 overlapping GPC1 peptides, 18 amino acids long, 9 overlapped with the adjacent peptide; source: synthetic peptide (Genscript)
T1 chain: FRDLYSELRLYYRGANLH

GPC1 peptide 15 = molecular target: T2, GPC1 peptide 15 (Homo sapiens, UniProt P35052); assay: as above; settings: both partners purified
T2 construct: peptide no; 15 of 53 overlapping GPC1 peptides, 18 amino acids long, 9 overlapped with the adjacent peptide; source: synthetic peptide (Genscript)
T2 chain: LYYRGANLHLEETLAEFW

[2] = molecular target: T3, human glypican-2 (GPC2), recombinant protein (Homo sapiens (Human)., UniProt Q8N158); assay: ELISA; D4 nanobody at 1 μg/ml on human GPC1 through GPC6 and mouse GPC1 proteins; detected with anti-FLAG-HRP; the legend calls it monoclonal phage ELISA; settings: both partners purified
T3 construct: glypican-2, human, recombinant protein coated on ELISA plates; source: bought: R&D Systems

[3] = molecular target: T4, human glypican-3 (GPC3), recombinant protein (Homo sapiens, UniProt P51654); assay: as above; settings: both partners purified
T4 construct: glypican-3, human, recombinant protein coated on ELISA plates; source: bought: R&D Systems

[4] = molecular target: T5, human glypican-4 (GPC4), recombinant protein (Homo sapiens, UniProt O75487); assay: as above; settings: both partners purified
T5 construct: glypican-4, human, recombinant protein coated on ELISA plates; source: bought: R&D Systems

[5] = molecular target: T6, human glypican-5 (GPC5), recombinant protein (Homo sapiens, UniProt P78333); assay: as above; settings: both partners purified
T6 construct: glypican-5, human, recombinant protein coated on ELISA plates; source: bought: R&D Systems

[6] = molecular target: T7, human glypican-6 (GPC6), recombinant protein (Homo sapiens (Human)., UniProt Q9Y625); assay: as above; settings: both partners purified
T7 construct: glypican-6, human, recombinant protein coated on ELISA plates; source: bought: R&D Systems

[7] = molecular target: T8, mouse glypican-1 (GPC1) protein (Mus musculus (Mouse)., UniProt Q9QZF2); assay: as above; settings: both partners purified
T8 construct: glypican-1, mouse, protein used in the ELISA of D4; also called mouse GPC1; murine GPC1

D4-LR immunotoxin = D4-LR immunotoxin (Camelus dromedarius | Pseudomonas); assay: negative stain EM; settings: both partners purified
D4-CD8H-CD8TM CAR = molecular target: T9, D4-CD8H-CD8TM CAR (Camelus dromedarius | ); assay: flow cytometry on cells; CAR T cells stained with GPC1-hFc at 5 μg/ml and goat anti-human IgG-PE; settings: one partner purified
T9 construct: CD8 hinge (CD8H), 45 amino acids; CD8 transmembrane region (CD8TM); 4-1BB costimulatory domain; intracellular CD3ζ; also called D4 CAR; pMH305; source: human T cells from PBMCs, lentivirally transduced; on cells and in lysate

D4-CD8H-CD28TM CAR = molecular target: T10, D4-CD8H-CD28TM CAR (Camelus dromedarius | ); assay: as above; settings: one partner purified
T10 construct: CD8 hinge (CD8H), 45 amino acids; CD28 transmembrane domain (CD28TM); 4-1BB costimulatory domain; intracellular CD3ζ; also called pMH402; source: human T cells from PBMCs, lentivirally transduced; on cells and in lysate

D4-IgG4H-CD8TM CAR = molecular target: T11, D4-IgG4H-CD8TM CAR (Camelus dromedarius | human | ); assay: as above; settings: one partner purified
T11 construct: CD8 transmembrane region (CD8TM); 4-1BB costimulatory domain; intracellular CD3ζ; Dimer by non-reducing western blot; also called pMH382; source: human T cells from PBMCs, lentivirally transduced; on cells and in lysate

D4-IgG4H-CD28TM CAR = molecular target: T12, D4-IgG4H-CD28TM CAR (Camelus dromedarius | human | ); assay: as above; settings: one partner purified
T12 construct: CD28 transmembrane domain (CD28TM); 4-1BB costimulatory domain; intracellular CD3ζ; Dimer by non-reducing western blot; also called D4-IgG4H only CAR; D4-IgG4H CAR; source: human T cells from PBMCs, lentivirally transduced; on cells and in lysate

[8] = molecular target: B3; assay: as above; settings: one partner purified
GPC1 peptide 53 = molecular target: T13, GPC1 peptide 53 (Homo sapiens, UniProt P35052); assay: ELISA; 53 overlapping 18-mer GPC1 peptides coated at 5 μg/ml in PBS overnight; 1 μg/ml of HM2 or D4 added; settings: both partners purified
T13 construct: peptide no; 53 of 53 overlapping GPC1 peptides, 18 amino acids long, 9 overlapped with the adjacent peptide; source: synthetic peptide (Genscript)
T13 chain: DGCLDDLCSRKVSRKSSS

His-tagged GPC1 protein = molecular target: T14, His-tagged GPC1 protein (Homo sapiens, UniProt P35052); assay: BLI; Octet RED96; His-tagged GPC1 immobilised on Ni-NTA biosensor, HM2 in solution; association 600 s, dissociation 1800 s; settings: both partners purified
T14 construct: glypican-1, human, His-tagged protein immobilised on the Ni-NTA biosensor; also called human GPC1

[9] = molecular target: T3, human glypican-2 (GPC2), recombinant …; assay: ELISA; plates coated with human GPC1 through GPC6; mouse hybridoma supernatant with 1 μg/ml of each mAb; detected with goat anti-mouse IgG-HRP; settings: one partner purified
[10] = molecular target: T4, human glypican-3 (GPC3), recombinant …; assay: as above; settings: one partner purified
[11] = molecular target: T5, human glypican-4 (GPC4), recombinant …; assay: as above; settings: one partner purified
[12] = molecular target: T6, human glypican-5 (GPC5), recombinant …; assay: as above; settings: one partner purified
[13] = molecular target: T7, human glypican-6 (GPC6), recombinant …; assay: as above; settings: one partner purified

T3 sequence (Q8N158 24-554): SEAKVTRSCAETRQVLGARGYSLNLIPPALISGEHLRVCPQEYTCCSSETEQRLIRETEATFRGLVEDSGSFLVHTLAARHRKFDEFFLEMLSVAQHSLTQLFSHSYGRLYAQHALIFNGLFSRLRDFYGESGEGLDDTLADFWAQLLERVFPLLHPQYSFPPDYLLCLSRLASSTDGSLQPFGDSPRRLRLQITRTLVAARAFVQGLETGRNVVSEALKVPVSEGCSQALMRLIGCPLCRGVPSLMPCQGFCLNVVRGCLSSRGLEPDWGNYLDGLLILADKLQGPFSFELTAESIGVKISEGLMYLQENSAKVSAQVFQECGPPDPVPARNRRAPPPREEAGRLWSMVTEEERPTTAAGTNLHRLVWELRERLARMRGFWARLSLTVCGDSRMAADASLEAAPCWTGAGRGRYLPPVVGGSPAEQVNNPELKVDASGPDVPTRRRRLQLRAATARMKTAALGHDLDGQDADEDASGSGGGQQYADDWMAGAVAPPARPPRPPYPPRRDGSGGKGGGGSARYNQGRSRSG
T7 sequence (Q9Y625 24-529): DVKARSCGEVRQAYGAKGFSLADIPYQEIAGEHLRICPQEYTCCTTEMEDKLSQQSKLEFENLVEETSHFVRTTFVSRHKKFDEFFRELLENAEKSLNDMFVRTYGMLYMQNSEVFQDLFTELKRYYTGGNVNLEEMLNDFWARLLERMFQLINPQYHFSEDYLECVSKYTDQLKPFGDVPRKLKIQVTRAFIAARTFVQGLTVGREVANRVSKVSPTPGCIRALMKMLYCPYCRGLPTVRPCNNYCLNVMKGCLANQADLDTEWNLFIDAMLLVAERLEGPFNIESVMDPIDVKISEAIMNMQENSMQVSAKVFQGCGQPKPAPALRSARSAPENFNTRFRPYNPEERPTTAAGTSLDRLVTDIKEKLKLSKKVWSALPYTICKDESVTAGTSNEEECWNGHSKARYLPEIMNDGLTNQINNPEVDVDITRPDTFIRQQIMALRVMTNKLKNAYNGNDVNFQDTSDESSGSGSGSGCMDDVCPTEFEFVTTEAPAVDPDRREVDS
T5 sequence (O75487 19-529): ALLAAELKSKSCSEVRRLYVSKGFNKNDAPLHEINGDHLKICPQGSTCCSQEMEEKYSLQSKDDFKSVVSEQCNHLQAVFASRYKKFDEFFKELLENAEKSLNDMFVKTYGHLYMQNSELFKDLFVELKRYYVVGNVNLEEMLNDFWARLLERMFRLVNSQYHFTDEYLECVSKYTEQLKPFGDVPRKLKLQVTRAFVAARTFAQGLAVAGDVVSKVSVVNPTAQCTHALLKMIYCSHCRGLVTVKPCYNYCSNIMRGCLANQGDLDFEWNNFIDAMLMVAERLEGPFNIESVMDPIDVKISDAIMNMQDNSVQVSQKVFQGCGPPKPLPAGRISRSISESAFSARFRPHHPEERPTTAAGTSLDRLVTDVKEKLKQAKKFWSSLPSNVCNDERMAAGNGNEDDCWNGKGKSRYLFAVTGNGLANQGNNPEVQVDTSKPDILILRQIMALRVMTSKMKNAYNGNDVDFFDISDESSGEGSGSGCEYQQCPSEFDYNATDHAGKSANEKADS
T4 sequence (P51654 25-580): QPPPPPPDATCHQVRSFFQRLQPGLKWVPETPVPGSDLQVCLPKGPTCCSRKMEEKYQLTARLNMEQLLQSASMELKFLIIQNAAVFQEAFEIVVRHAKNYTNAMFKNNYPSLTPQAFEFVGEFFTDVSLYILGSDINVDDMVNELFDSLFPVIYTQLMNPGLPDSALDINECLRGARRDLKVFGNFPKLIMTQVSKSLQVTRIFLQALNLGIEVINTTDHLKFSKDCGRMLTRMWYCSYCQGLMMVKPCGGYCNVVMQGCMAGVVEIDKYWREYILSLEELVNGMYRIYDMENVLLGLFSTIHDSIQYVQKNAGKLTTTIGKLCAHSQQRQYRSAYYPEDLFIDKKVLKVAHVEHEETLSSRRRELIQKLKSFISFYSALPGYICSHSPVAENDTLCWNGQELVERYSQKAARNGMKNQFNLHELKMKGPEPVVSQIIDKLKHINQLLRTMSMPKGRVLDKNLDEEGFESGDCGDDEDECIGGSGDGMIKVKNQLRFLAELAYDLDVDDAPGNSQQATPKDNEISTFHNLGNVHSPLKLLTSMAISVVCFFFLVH
T6 sequence (P78333 25-572): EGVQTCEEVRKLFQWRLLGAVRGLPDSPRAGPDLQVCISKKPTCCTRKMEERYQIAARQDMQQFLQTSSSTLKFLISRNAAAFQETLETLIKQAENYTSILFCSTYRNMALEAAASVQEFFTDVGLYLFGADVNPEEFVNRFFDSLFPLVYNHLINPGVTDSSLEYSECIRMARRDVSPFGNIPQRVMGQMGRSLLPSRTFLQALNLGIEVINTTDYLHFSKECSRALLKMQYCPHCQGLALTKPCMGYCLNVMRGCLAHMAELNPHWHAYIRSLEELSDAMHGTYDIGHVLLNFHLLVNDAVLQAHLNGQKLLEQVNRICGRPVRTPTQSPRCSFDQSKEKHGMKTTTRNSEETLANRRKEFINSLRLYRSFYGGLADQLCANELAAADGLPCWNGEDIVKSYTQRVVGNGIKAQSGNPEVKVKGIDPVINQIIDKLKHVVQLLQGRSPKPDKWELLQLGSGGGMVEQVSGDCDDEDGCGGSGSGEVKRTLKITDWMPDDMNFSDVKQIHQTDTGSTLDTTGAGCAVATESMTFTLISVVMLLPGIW
T14 sequence (P35052 whole entry, looked up): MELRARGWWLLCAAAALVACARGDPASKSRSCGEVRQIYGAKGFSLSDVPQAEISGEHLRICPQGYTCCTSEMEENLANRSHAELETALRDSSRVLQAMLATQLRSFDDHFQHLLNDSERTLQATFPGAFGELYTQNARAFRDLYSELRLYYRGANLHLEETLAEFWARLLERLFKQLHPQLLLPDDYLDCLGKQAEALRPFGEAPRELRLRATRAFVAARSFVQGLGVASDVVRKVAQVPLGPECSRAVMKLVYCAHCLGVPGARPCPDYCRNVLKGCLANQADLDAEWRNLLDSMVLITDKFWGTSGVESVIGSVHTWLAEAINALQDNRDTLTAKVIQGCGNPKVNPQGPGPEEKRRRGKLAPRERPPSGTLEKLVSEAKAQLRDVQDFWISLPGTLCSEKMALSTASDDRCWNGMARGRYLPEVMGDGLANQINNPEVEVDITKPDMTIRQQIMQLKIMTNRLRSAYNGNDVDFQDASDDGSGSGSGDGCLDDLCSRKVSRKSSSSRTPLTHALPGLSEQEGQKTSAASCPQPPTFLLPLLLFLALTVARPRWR

B1: D4 dromedary camel VHH nanobody (VHH)
VHH: QVQLVESGGGLVQPGGSLRLSCVASGYSYSIGYMAWFRQAPGKERAWVASRYTGDGGAVFDDAVKGRFTTSQESAGNTFDLQMDSLKPEDTAMYYCAAKGPGFGRWEYWGRGTQVTVSS
notes: D4 VHH; His tag used to load the Ni-NTA biosensor; FLAG used for detection in ELISA and flow cytometry; also called D4 antibody; D4 VHH
B1 was tested, and the Kd [1] was 0.7 nM, the binding result (GPC1 peptide 14) was “binds” and the binding result (GPC1 peptide 15) was “binds”. B1: no binding (tested: 1 μg/ml) [2]; no binding (tested: 1 μg/ml) [3]; no binding (tested: 1 μg/ml) [4]. B1: no binding (tested: 1 μg/ml) [5]; no binding (tested: 1 μg/ml) [6]; binds [7].

B2: GPC1 protein (negative stain EM) (natural protein)
chain: DPASKSRSCGEVRQIYGAKGFSLSDVPQAEISGEHLRICPQGYTCCTSEMEENLANRSHAELETALRDSSRVLQAMLATQLRSFDDHFQHLLNDSERTLQATFPGAFGELYTQNARAFRDLYSELRLYYRGANLHLEETLAEFWARLLERLFKQLHPQLLLPDDYLDCLGKQAEALRPFGEAPRELRLRATRAFVAARSFVQGLGVASDVVRKVAQVPLGPECSRAVMKLVYCAHCLGVPGARPCPDYCRNVLKGCLANQADLDAEWRNLLDSMVLITDKFWGTSGVESVIGSVHTWLAEAINALQDNRDTLTAKVIQGCGNPKVNPQGPGPEEKRRRGKLAPRERPPSGTLEKLVSEAKAQLRDVQDFWISLPGTLCSEKMALSTASDDRCWNGMARGRYLPEVMGDGLANQINNPEVEVDITKPDMTIRQQIMQLKIMTNRLRSAYNGNDVDFQDASDDGSGSGSGDGCLDDLCSRKVSRKSSSSRTPLTHALPGLSEQEGQKTS
notes: glypican-1 protein mixed 1:1 with HM2 Fab or D4-LR for negative stain EM; It may be the His-tagged or the hFc-fused protein of the other experiments
B2: binds (D4-LR immunotoxin).

B3: binds (D4-CD8H-CD8TM CAR); binds (D4-CD8H-CD28TM CAR); binds (D4-IgG4H-CD8TM CAR). B3: binds (D4-IgG4H-CD28TM CAR).

B4: clone 1–12-IgG4H-CD28TM CAR (other)
VH: AVTLDESGGGLQTPGRALSLVCKASGFTFSRYAMYWVRQAPGKGLEFVAGIGNTGRYTGYGSAVKGRATISRDSGQSTVRLQLNNLRAEDTGNYYCAKSVSPYCCDAADIDAWGHGTEVIVST
VL: ALTQPASVSANPGETVKITCSGGSSGYAYGWYQQKSPGSAPVTLLYSNNNRPSDIPSRFSGSKSGSTATLTITGVQAEDEAVYFCGSVDSSSYAGIFGAGTTLTV
notes: scFv of the anti-GPC1 mAb clone 1–12; CD28 transmembrane domain (CD28TM); 4-1BB costimulatory domain; intracellular CD3ζ; also called clone 1–12 CAR; source: human T cells from PBMCs, lentivirally transduced; on cells
B4: binds [8].

B5: HM2 mouse monoclonal antibody (antibody, V domains shown)
VH: EVQLQQSGAELVRPGASVKLSCTASGFNIKDDYMHWVKQRPEQGLEWIGWIDPENGDTEYASKFQGKATITADTSSNTAYLQLSSLTSEDTAVYYCTRSSVGYWGQGTTLTVSS
VL: DVVMTQTPLSLPVSLGDQASISCRSSQSLVHSNGNTYLHWYLQKPGQSPKLLIYKVSNRFSGVPDRFSGSGSGTYFTLKISRVEAEDLGVYFCSQRTHVPYTFGGGTKLEIK
notes: heavy chain of mouse mAb HM2; light chain of mouse mAb HM2; Raised by immunising mice with the C-lobe region of GPC1; also called HM2 mAb; HM2 clone; source: mouse hybridoma; in supernatant and purified
For B5, the binding result (GPC1 peptide 53) was “binds”, the Kd (His-tagged GPC1 protein) was 0.4 nM and the binding result [9] was “no binding (tested: 1 μg/ml)”. B5: no binding (tested: 1 μg/ml) [10]; no binding (tested: 1 μg/ml) [11]; no binding (tested: 1 μg/ml) [12]. B5: no binding (tested: 1 μg/ml) [13].
